Series [1] has as its system T1, CC(=O)c1ccc[n+]([C@@H]2O[C@H](COP(=O)([O-])OP(=O)(O)OC[C@H]3O[C@@H](n4cnc5c(N)ncnc54)[C@H](O)[C@@H]3O)[C@@H](O)[C@H]2O)c1.
T1 construct: recombinant rBmLDH
In words: enzyme kinetics (Km), lactate to pyruvate, comparison enzyme. It counts as biochemical, Babesia microti. As to conditions: varied: cofactor.

The target in series [2] is recombinant Babesia orientalis lactate dehydrogenase (Babesia orientalis). In words: native gel or EMSA; 8% blue native-PAGE of purified rBoLDH, without sodium dodecyl sulfate; ~160 kDa band.
Series [3] shares this target. Kind of series: crystal structure; apo rBoLDH, hanging drop vapour diffusion at 20°C, 1 M lithium chloride, 0.1 M sodium acetate, 25-30% PEG 6000; space group P1, 2.67 Å.

The term Km denotes the substrate concentration at which the rate is half of its maximum. For “Babesia microti lactate dehydrogenase (BmLDH) (Babesia microti strain RI)”, in series [1], the Km amounted to 880 ± 120 µM. For orientation: stoichiometry N means the number of molecules, sites or subunits per partner or assembly. “recombinant Babesia orientalis lactate dehydrogenase (enzyme)”: the stoichiometry N in series [2] and in series [3] was 4 in each case.

Source of the values: PMC8766848, “The Structural Basis of Babesia orientalis Lactate Dehydrogenase” (Frontiers in Cellular and Infection Microbiology, 2022).
